Measurements reported in patent EP4640235A1 (Toray Industries, Inc., dated 2025).
Residue numbers refer to the chain shown, from its start.

T1: human CAPRIN-1 protein expressed on cell membrane surfaces of human cancer cells (human, UniProt Q14444 2-709)
T1 construct: whole, on cells; Endogenous protein on human cancer cells; Flow cytometry was done without permeation of the cell membranes
T1 sequence (looked up): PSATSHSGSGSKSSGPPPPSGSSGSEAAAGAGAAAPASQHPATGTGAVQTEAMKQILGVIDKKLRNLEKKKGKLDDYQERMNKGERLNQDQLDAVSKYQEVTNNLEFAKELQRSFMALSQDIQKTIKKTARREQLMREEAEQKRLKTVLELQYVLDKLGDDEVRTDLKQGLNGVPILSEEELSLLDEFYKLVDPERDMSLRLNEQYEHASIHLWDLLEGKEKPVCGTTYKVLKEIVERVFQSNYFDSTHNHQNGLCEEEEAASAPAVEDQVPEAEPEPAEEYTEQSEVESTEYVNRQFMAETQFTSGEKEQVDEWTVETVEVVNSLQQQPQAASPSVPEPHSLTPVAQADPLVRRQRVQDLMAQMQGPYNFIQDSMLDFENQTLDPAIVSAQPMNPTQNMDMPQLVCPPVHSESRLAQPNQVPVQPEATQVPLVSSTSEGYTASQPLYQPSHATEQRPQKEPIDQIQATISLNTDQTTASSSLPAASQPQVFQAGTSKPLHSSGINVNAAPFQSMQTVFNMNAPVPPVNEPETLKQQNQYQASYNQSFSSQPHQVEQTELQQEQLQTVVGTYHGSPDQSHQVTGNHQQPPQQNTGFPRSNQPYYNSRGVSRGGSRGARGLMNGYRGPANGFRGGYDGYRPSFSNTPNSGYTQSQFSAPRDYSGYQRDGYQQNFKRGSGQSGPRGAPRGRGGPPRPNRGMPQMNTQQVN

B1: anti-CAPRIN-1 antibody (d) (antibody, V domains shown)
VH: QSLEESGGDLVKPGASLTLTCTASGFSFSGSYYMSWVRQAPGKGLEWIAYIYIGDGVTAYANWAKGRFTISKASSTTVTLQMTSLTAADTATYFCARGNKLWGPGTLVTVSS
VL: DVVMTQTPASVEAAVGGTVTIKCQASQSISSYLAWYQQKPGQPPKRLIYDASNLDSGVPSRFKGSGSGTDFTITISDLECADAATYYCQCTAVSSATIYGNAFGGGTEVVVK
B2: anti-CAPRIN-1 antibody (o) (antibody, V domains shown)
VH: EVQLHQFGAELVKPGASVKISCKASGYTFTDYNMDWVKQSHGKSLEWIGDINPNYDSTSYNQKFKGKATLTVDKSSSTAYMELRSLTSEDTAVYYCARSRSYDYEGFAYWGQGTLVTVSA
VL: DIQMTQSPASLSASVGETVTITCRASGNIHNYLAWYQQKQGKSPQLLVYNAKTLADGVPSRFSGSGSGTQYSLKINSLQPEDFGSYYCQHFWSTLTFGAGTKLELKR
B3: anti-CAPRIN-1 antibody (z) (antibody, V domains shown)
VH: GPDLVKPGASVKISCKASGYSFTAYYMHWVKQSHGKSLEWIGRVNPNNGGTTYNQKFKGKAILTVDKSSSTAYMELRSLTFEDSAVYYCARRIYYGYFDYWGQGTTVTVSS
VL: AFFAVSLGQRATISCKASQSVDYDGDSYMNWYQQKPGQPPKLLIYVASNLESGVPARFSGSGSGTDFTLNIHPVEEEDAATYYCQQSNEDPYTFGGGTKLEIKQ
B4: anti-CAPRIN-1 antibody (e) (antibody, V domains shown)
VH: AVTLDESGGGLQTPGGALSLVCKASGFTFSGYDMLWVRQAPGKGLEWVAGIGSTGGGTDYGAAVKGRATISRDNGQSTVRLQLNNLRAEDTATYYCAKVAGGCNSGYCRDSPGSIDAWGHGTEVIVS
VL: AVTQQPASVSANPGETVKITCSGGGSRNYYGWYQQKSPGSVPVTVIYYDDQRPSNIPSRFSGALSGSTSTLTITGVQADDEAVYFCGSADSNTYEGSFGAGTTLTVL
B5: anti-CAPRIN-1 antibody (af) (antibody, V domains shown)
VH: EVQLVESGGGLVQPGGSLRLSCAASGFSLSSHSLGWVRQAPGKGLEWIGDIRSGGSAYYANWAKGRFTISRDNSKNTLYLQMNSLRAEDTAVYYCTRTNGPSDLTNRLDLWGQGTLVTVSS
VL: QVLTQSPSSLSASVGDRVTINCQASQSLYNNENLAWFQQKPGKVPKRLIYGASTLASGVSSRFSGSGSGTEFTLTISSLQCEDFAIYYCLGEFSCGSADCFAFGGGTKVEIK
B6: anti-CAPRIN-1 antibody (ah) (antibody, V domains shown)
VH: B5 VH
VL: EQVLTQSPSSLSASVGDRVTINCQASQSLYNNENLAWFQQKPGKVPKRLIYGASTLASGVSSRFSGSGSGTEFTLTISNLQPEDFAIYYCLGEFSCGSADCFAFGGGTKVEIK
B7: anti-CAPRIN-1 antibody (ak) (antibody, V domains shown)
VH: B5 VH with Y94F
VL: B6 VL
B8: anti-CAPRIN-1 antibody (ai) (antibody, V domains shown)
VH: B5 VH with Y94F
VL: B6 VL with Q2I, I87T
B9: anti-CAPRIN-1 antibody (ag) (antibody, V domains shown)
VH: B5 VH with Y94F
VL: B5 VL
B10: anti-CAPRIN-1 antibody (aj) (antibody, V domains shown)
VH: B5 VH
VL: B6 VL with Q2I, I87T
B11: anti-CAPRIN-1 antibody (b) (antibody, V domains shown)
VH: B5 VH with V2Q, Q3S
VL: B5 VL
B12: anti-CAPRIN-1 antibody (i) (antibody, V domains shown)
VH: GAELVRSGASVKMSCKASGYSFTDYNMYWVKQTPGQGLEWIGYIYPGNGGTNYNQKFKGKATLTADTSSSTAYMQISSLTSEDSAVYFCARDYDDGGYAMDYWGQGTTVTVSS
VL: DIQMTQSPASLSASVGETVTITCRASGNIHNYLTWYQQKQGKSPQLLVYNAKTLADGVPSRFSGSGSGTQYSLKINRLQPEDFGSYYCQHFWNIPWTFGGGTKLNSR
B13: anti-CAPRIN-1 antibody (c) (antibody, V domains shown)
VH: AVTLDESGGGLQTPGGGLSLVCKASGFTFSSFDMGWVRQAPGKGLEFVAQINDAGSRTWYATAVKGRATISRDNGQTTVRLQLNNLRAEDTGTYYCTRGSGYVGAGAIDAWGHGTEVIVS
VL: AALTQPSSVSANPGETVKITCSGGSGYYGWYQQQKSPGSAPVTVIYQNDKRPSDIPSRFSGSGSGSTNTLTITGVQAEDEAVYFCGRYDSTDSGIFGAGTTLTVL
B14: anti-CAPRIN-1 antibody (j) (antibody, V domains shown)
VH: DAELVKPGASVKISCKASGYTFTDHSIHWVQQKPEQGLEWIGYISPGNGNIKYNEKFKGKATLTADKSSSTAYMQLNSLTSEDSAVYFCKRSLGRGGPYYFDYWGQGTTVTVSS
VL: DIVLTQAAPSLPVTPGESVSISCRSSKSLLHSNGNTYLYWFLQRPGQSPQLLIYRMSNLASGVPDRFSGSGSGTAFTLRISRVEAEDVGVYYCMQHREYPVTFGSGPN
B15: anti-CAPRIN-1 antibody (a) (antibody, V domains shown)
VH: AVTLDESGGGLQMSRGGLSLVCKASGFDFSSYQMNWIRQAPGKGLEFVAAINKFGNSTGHGAAVKGRVTISRDNGQSTVRLQLNNLRAEDTAIYFCTKHAYGYCGSGTWCAAGEIDAWGHGTEVIVSS
VL: QAASTQPSSVSANPGETVEITCSGGGSYSYGWFQQKSPGSAPVTVIYYNNKRPSDIPSRFSGSKSGSTGTLTITGVQADDEAVYYCGSGDSTDTAVFGAGTTLTVLG

Biological target: T1, human CAPRIN-1 protein expressed on …
Test: flow cytometry on cancer cells

Binding result, binds:
B1, B2, B3, B4, B5, B6, B7, B8, B9, B10, B11, B12, B13, B14, B15
